# Results reported in patent publication US20240043504A1 (published 2024).
# Target: SARS-COV-2 RBD-mFc (SARS-CoV-2)
# Assay: Luminex beads
row,Binder,binding result
1,"mAb10964 (antibody, V domains shown) VH: QVQLQESGPGLVKPSETLSLTCTVSGGSINNYYWIWIRQPPGKGLEWIGYIYHSGSTNYNPSLKSRVTISVDTSKNQFSLKVSSVTAADTAVYYCANMVRGVYEDDYWGQGTLVTVSS VL: DIQMTQSPSSLSASVGDRVTITCRASQSISNYLNWYQQKPGKAPKLLIFAASSLRSGVPSRFSGSGSGTDFTLTISSLHPEDFATYYCQQNYNTPLTFGPGTKVDIKR",binds
2,"mAb10913 (antibody, V domains shown) VH: EVQLVESGGGLVQPGGSLRLSCAASGFTFRNYEMNWVRQAPGKGLEWVSYITSSGSTMYYADSVKGRFTISRDNAKNSLYLQMNSLRAEDTAVYYCARDGFYYYYAMDVWGQGTTVTVSS VL: QSVLTQPPSVSAAPGQKVTISCSGSSSNIGNNYVSWYQQLPGTAPKLLIYDNNKRPSGIPDRFSGSKSGTSATLGITGLQTGDEADYYCGTWDSSLSVGRVFGTGTKVTVLG",binds
3,"mAb10914 (antibody, V domains shown) VH: EVQLVESGGGLVQPGGSLRLSCAASGLIVSRNYMIWVRQAPGKGLEWVSVIYSGGSTFYADSVKGRFTISRHNSKNTLYLQMNSLRAEDTAVYYCARDLGTGGMDVWGQGTTVTVSS VL: DIQLTQSPSFLSASVGDRVTITCWASQGISSYLAWYQQKPGKAPKLLIYAASTLQSGVPSRFSGSGSGTEFTLTISSLQPEDFATYYCQQLNSYPLTFGGGTKVEIKR",binds
4,"mAb10965 (antibody, V domains shown) VH: EVQLVESGGGLIQPGGSLRLSCAASVFTVSYNYMSWVRQAPGKGLEWVSVIYSGGSTYYADSVKGRFTISRDNSKNTLYLQMNSLRAEDTAVYYCARALPGWGGSFEYFDYWGQGTLVTVSS VL: not shown",binds
5,"mAb10966 (antibody, V domains shown) VH: EVQLVESGGGLVQPGGSLRLSCAASGLTVSSNYMSWVRQAPGKGLEWVSVIYSGGSTFYADSVKGRFTISRDNSKNTLYLQMNSLRPEDTAVYYCAREGRIAATGYGMDVWGQGTTVTVSS VL: not shown",binds
6,"mAb10989 (antibody, V domains shown) VH: QVQLVQSGAEVKKPGASVKVSCKASGYIFTGYYMHWVRQAPGQGLEWMGWINPNSGGANYAQKFQGRVTLTRDTSITTVYMELSRLRFDDTAVYYCARGSRYDWNQNNWFDPWGQGTLVTVSS VL: QSALTQPASVSGSPGQSITISCTGTSSDVGTYNYVSWYQQHPGKAPKLMIFDVSNRPSGVSDRFSGSKSGNTASLTISGLQAEDEADYYCSSFTTSSTVVFGGGTKLTVLG",binds
7,"mAb10971 (antibody, V domains shown) VH: EVQLVESGGGLIQPGGSLRLSCAASGVTVSSNYMSWVRQAPGKGLEWVSVIYSGGSTFYSDSVKGRFSISRDNSKNTLYLQMNSLRAEDTAVYYCARDLYYYGMDVWGQGTTVTVSS VL: DIQLTQSPSFLSASVGDRVTITCRASQGISTYLAWYQQKPGKAPKLLIYAASTLQSGVPSRFSGSGSGTEFTLTISSLQPEDFATYYCQQLDSYPGLTFGGGTKVEIKR",binds
8,"mAb10957 (antibody, V domains shown) VH: EVQLVESGGGLVQPGGSLRLSCAASGVTVSSNYMSWVRQAPGKGLEWVSVIYSGGSTFYADSVKGRFTISRDNSKNTLFLQMNSLRIEDTAVYYCARDLGPYGMDVWGQGTTVTVSS VL: DIQLTQSPSFLSASVGDRVTITCRASQGISSYLAWYQQKPGKAPKLLIYAASTLQSGVPSRFSGSGSGTQFILTISSLQPEDFATYYCQQLNSYPGFTFGPGTKVDIKR",binds
9,"mAb11010 (antibody, V domains shown) VH: QVQLVESGGGVVQPGRSLRLSCAASGFTFSSYGMHWVRQAPGKGLEWVAVISYDGSYKYYADSVKGRFTISRDNSKNTLYLQMNSLRAEDTAVYYCAIDGGTVTTIFDYWGQGTLVTVSS VL: not shown",binds
10,"mAb10982 (antibody, V domains shown) VH: EVQLVESGGGLVQPGGSLRLSCAASGLTVSSNYMSWVRQAPGKGLEWVSVIYSGGTTYYADSVKGRFTISRHNSKNTLSLQMNSLRAEDTAVYYCARGEGANYYGMDVWGQGTTVTVSS VL: QSVLTQPPSVSGAPGQRVTISCTGSSSNIGTGYDVHWYQQLPGTAPKLLIYGNSNRPSGVPDRFSGSKSGTSASLAITGLQAEDEADYYCQSYDSSLSGYVVFGGGTKLTVLG",binds
11,"mAb10986 (antibody, V domains shown) VH: EVQLVESGGGLVQPGGSLRLSCAASEFTVSSNYMSWVRQAPGKGLEWVSVIYSGGSTFYADSVKGRFTISRDNSKNTLYLQMNSLRAEDTAVYYCARALPYGDLHFDYWGQGTLVTVSS VL: QSVLTQPPSVSGAPGQRVTISCTGSSSNIGTGYDVHWYQQLPGTAPKLLIYGNTNRPSGVPDRFSGSKSGTSASLAITGLQAEDEADYYCQSYDSSLSDSYVFGTGTKVTVLG",binds
12,"mAb10985 (antibody, V domains shown) VH: EVQLVESGGGLVQPGRSLRLSCAASGFTFDDYAMHWVRQAPGKGLEWVSGISWNRGSIGYADSVKGRFTISRDNAKNSLYLQMSSLRAEDTALYYCAKDGERWDSVVVPSARNGMDVWGQGTTVTVSS VL: QSVLTQPPSVSGAPGQRVTISCTGSSSNIGAGYDVHWYQQLPGTAPKLLIYGNSNRPSGVPDRFSGSKSGTSASLAITGLQAEDEADYYCQSYDSSLSGSYVFGTGTKVTVLG",binds
13,"mAb10967 (antibody, V domains shown) VH: EVQLVESGGGLVQPGGSLRLSCAASGFTVSSNYMSWVRQAPGKGLEWVSVIYPGGSTFYADSVKGRFTISRDNSKNTLYLQMNSLRAEDTAVYYCARDQRDFAWGQGTLVTVSS VL: DIQMTQSPSSLSASVGDRVTITCQASQDISNYLNWYQQKPGKAPKLLIYDASNLETGVPSRFSGSGSGTDFTFTISGLQPEDIATYYCQQYDNLPPTFGQGTRLEIKR",binds
14,"mAb10955 (antibody, V domains shown) VH: EVQLVESGGGLVQPGGSLRVSCAASGFTVSRNYMSWVRQAPGKGLEWVSVIYSGGSTFYADSVKGRFTISRDNSKNTLYLQMNSLRAEDTAIYYCARYIPRFDPWGQGTLVTVSS VL: DIQMTQSPSSLSASVGDRVTITCQASQDISNYLNWFQQKPGRAPKLLIYDASNLETGVPSRFSGSGSGTDFTFTISSLQPEDIATYYCQQYDNLPITFGQGTRLEIKR",binds
15,"mAb10954 (antibody, V domains shown) VH: EVQLVESGGGLVQPGGSLRLSCAASGITVSSNYMSWVRQAPGKGLEWVSLIYSGGSTYYADSVKGRFTISRDNSKNTLYLQMNSLRVEDTAVYYCARDHGMAAAGYNYWGQGTLVTVSS VL: DIQMTQSPSSLSASVGDRVTITCQASQDINKYLNWYQQKPGKAPKLLIYDASNLETGVPSRFSGSGSGTDFTFTINSLQPEDFATYFCQQYDNLPPAFGQGTKVEIKR",binds
16,"mAb11004 (antibody, V domains shown) VH: QVQLVESGGGVVQPGRSLRLSCVASGFTFSIYGMDWVRQAPGKGLEWVAVISYDGSNKYYADSVKGRFTISRDNSKNTLYLQMNSLRPEDTAVYYCAKDREAAADAFDIWGQGTMVTVSS VL: DIQMTQSPSSVSASVGDRVTITCRASQGISSWLAWYQQKPGKAPKLLIYAASSLHSGVPSRFSGSGSGTDFTLTISSLQPEDFATYYCQQANSFRLTFGGGTKVEIK",binds
17,"mAb10998 (antibody, V domains shown) VH: EVQLVESGGGLVHPGGSLRLSCAASGLTVSSNYMSWVRQAPGKGLEWVSVIYSGGSTYYADSVKGRFTISRHNSKNTLFLQMNSLRAEDTAVYYCARDRPITGTTLDVWGQGTTVTVSS VL: DIQMTQSPSSLFASVGDRVTITCRASQSISSYLNWYQQKPGKAPKLLIYAASSLQSGVPSRFSGSGSGTDFTLTISSLQPEDFAFYYCQQTYSTPPITFGQGTRLEIK",binds
18,"mAb11006 (antibody, V domains shown) VH: EVQLVESGGGLVQPGGSLRLSCAASGFIVSRNYMSWVRQAPGKGLEWVSVIYSGGSTFYADSVKGRFTISRHNSKNTLYLQMNSLKAEDTAVYYCARELRGYFDYWGQGTLVTVSS VL: DIQLTQSPSFLSASVGDRVTITCWASQGISSYLAWYQQKPGKAPKLLIYAASTLQSGVPSRFSGSGSGTEFTLTISSLQPEDFATYYCQLLNSYPYTFGQGTKLEIK",binds
19,"mAb11008 (antibody, V domains shown) VH: EVQLVESGGGLVQPGGSLRLSCAASGFTVSSNYMTWVRQAPGKGLEWVSVIYSGGSTFYADSVKGRFTISRHNSENTLYLQMNSLRAEDTAVYYCARDLAAAGTDYWGQGALVTVSS VL: DIQLTQSPSFLSASVGDRVTITCWASQGISSYLAWYQQKPGKAPKLLIYAASTLQSGVPSRFSGSGSGTEFTLTISSLQPDDFATYYCQHLNSYLYTFGQGTKLEIK",binds
20,"mAb10939 (antibody, V domains shown) VH: EVQLVESGGGLVQPGGSLRLSCAASGLTVSSNYMNWVRQVPGKGLEWVSVIYSGGSKFYVDSVKGRFTISRHNSKNTLYLQMNSLRPEDTAVYYCTRDAQYYGMDVWGQGTTVTVSS VL: DIQMTQSPSSLSASVGDRVTITCRASQSISTYLHWYQQKPGEAPKLLIYAASSLQSGVPSRFSGSGSGTDFTLTISSLQPEDFATYYCQQSYSTPPEIFGQGTKLEIKR",binds
21,"mAb10956 (antibody, V domains shown) VH: EVQLVESGGGLVQPGGSLRLSCAASGLTVSSNYMSWVRQAPGKGLEWVSVIYSGGSTFYADSVKGRFTISRDNSKNTLYLQMNSLRAEDTAVYYCARDLIKYGMDVWGQGTTVTVSS VL: not shown",binds
22,"mAb10984 (antibody, V domains shown) VH: EVQLVESGGGLVQPGGSLRLSCAASGLTVNRNYMSWVRQAPGKGLEWVSLIYSGGSTYYADSVKGRFTISRDNSKNTLYLQMNSLRLEDTAVYYCARGELGIPYGMDVWGQGTTVTVSS VL: QSVLTQPPSVSAAPGQKVTISCSGSSSNIGNNYVSWYQQLPGTAPKLLIYDNNKRPSGIPDRFSGSKSGTSATLGITGLQTGDEADYYCGTWDSSLSAGVFGGGTKLTVLG",binds
23,"mAb11002 (antibody, V domains shown) VH: EVQLVESGGGLVQPGGSLRLSCAASGFTVSSNYMSWVRQAPGKGLEWVSVIYSGGSTFYADSVKGRFTISRHNSKNTLYLQMNSLRAEDTAVYYCAREGYGMDVWGQGTTVTVSS VL: not shown",binds
24,"mAb10969 (antibody, V domains shown) VH: QVQLVESGGGVVQPGRSLRLSCAASGFTFSSYAMHWVRQAPGKGLEWVAVISYDGSNKYYADSVKGRFTISRDNSKNTLYLQMNSLRAEDTAVYYCARDGRTITMVRGVIDDAFDIWGQGTMVTVSS VL: not shown",binds
